Reference: the supplement of paper PMC9170038

System: MS2 coat protein
Experiment: apparent KD of MS2 coat protein; designed switch direction (-1 OFF switch, 1 ON switch): -1; higher = weaker reporter binding
Outline: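 RNA switches sharing common flanks were transcribed by stalled E. coli RNA polymerase on Illumina chips. A doubling series of SNAP-549-labelled MS2 coat protein, from 0.7 or 1.5 nM to 3 µM, was applied in Tris-HCl pH 7.5 buffer with KCl, MgCl2, BSA, DTT, tRNA and Tween-20. Each step lasted 0.8–1.5 h at the bottom of the series and 10–20 min at the top. Normalised cluster fluorescence was curve-fitted, giving apparent KD as the per-design median over clusters.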

[1] = Eterna round: R95, input ligand: FMN 200 uM
[2] = Eterna round: R95, input ligand: microRNA oligo, concentration not stated
[3] = Eterna round: R95, input ligand: none
[4] = input ligand: microRNA oligo, concentration not stated

| Sequence | apparent KD of MS2 coat protein [1] [nM] | apparent KD of MS2 coat protein [2] [nM] | apparent KD of MS2 coat protein [3] [nM] | apparent KD of MS2 coat protein (input ligand: FMN 200 uM) [nM] | apparent KD of MS2 coat protein [4] [nM] | apparent KD of MS2 coat protein (input ligand: none) [nM] |
| --- | --- | --- | --- | --- | --- | --- |
| CCAGCGUAUGUGAGGAUAUGCUGGUCCUUGGAUCAGCAGAAGGCACAUGAGGAUCACCCAUGUGGUGACGUUGG [JL bmx4 3.44] (puzzle: Brourd's mod of Exclusion 4) | 19.1 | 143 | 411 | – | – | – |
| CCGCGCCGGCGAGGAUAUUAGAAAGGAAGUGUAUAAGAAGGCGCCAUGCGCGAACAUGAGGAUCACCCAUGUGCCGCUCGUGUA [PowerStrip EXNG 1.24] (Eterna round: R96, puzzle: Exclusion NG 1) | – | – | – | 39.7 | 15.4 | 23.1 |
| AAACUACUUGGGCUGACACAUGAGGAUCACCCAUGUGGAGGGCAGGAUAUGCCCAUAAAAUUGGCGCAGAAGGGCCCACGUAGA [Tegesousbe] (Eterna round: R96, puzzle: Exclusion NG 3) | – | – | – | 17.1 | 6.89 | 13.9 |
| CCGGAAAUAGAGGAUAUAGGAGUCGAUAGACUCCUAGAAGGCUAUACAUGAGGAUCACCCAUGUGUCCUACCGG [Fiskers Ex 6 - 65] (puzzle: Exclusion 6) | – | 16.6 | – | – | – | – |
| UCACGCACUGUUAGGAUAUGUAUUAUGAAGGUAGUACAGAAGGAACAUGAGGAUCACCCAUGUAAUCCUGGGUG [Eternabot (L1) Solution 61] (Eterna round: R97, puzzle: Brourd's mod of Exclusion 4) | – | – | – | 726 | – | 93.1 |
| AACCUGAGGCUUUGCUUUAGGUUUACAUGAGGAUCACCCAUGUAGGAUAUGGUAGGCAUAGCUUACCAGAAGGACAUGAAAAUU [Mat - Exclusion NG 3 - Mod of JL - D29] (Eterna round: R96, puzzle: Exclusion NG 3) | – | – | – | 293 | 34.1 | 43.3 |
| GGUCUACAUGAGGAUCACCCAUGUUAGGAUAUGCUUCGUCGGGCUAUACACGGCGGAUGUAGAAGGGACCUGGU [Eternabot (L1) Solution 83] (Eterna round: R97, puzzle: Exclusion 1) | – | – | – | 16.7 | – | 20.2 |
| GAGGGACAUGAGGAUCACCCAUGUGAGGAUAUGUGAGAAGGAUUGGAGAGAAUAAGAAACAGAAGGCGCUGUAG [JR_Exclu1_Sub088] (puzzle: Exclusion 1) | 107 | 88.9 | 138 | – | – | – |
| GGUUAGCGAGGAUAUACAUGAGGAUCACCCAUGUGAUCCUAAGGCUGAUCAAGCCUAUGUAGAAGGCGCAAAUC [salish99_ex3_r4_008] (Eterna round: R97, puzzle: Exclusion 3) | – | – | – | 40.1 | – | 227 |
| CUGUACUGAGGAUAUACAUGAGGAUCACCCAUGUGAUUUGGUGCACGCGUACGUGUACGUAGAAGGCAGUACAG [Mat - Exclusion 3 - Eli Mod - D39] (Eterna round: R97, puzzle: Exclusion 3) | – | – | – | 317 | – | 25.5 |
| GCUGUGAAUCAGGAUAUGCGGAUAAAGAGUGCCGCAGAAGGGAUAACAUGAGGAUCACCCAUGUUCCUGCAUGA [Eternabot (L2) Solution 99] (Eterna round: R97, puzzle: Exclusion 6) | – | – | – | 26.5 | – | 20.9 |
| GGUUAGAUGGUAGGAUAUCCAUAUCGAGUGACCCUUUCAUAACAUGAGGAUCACCCAUGUCGGUGGGAGAAGGGCCGUACGGCG [salish99_ExNG02_R04_011] (Eterna round: R96, puzzle: Exclusion NG 2) | – | – | – | 35.5 | 38.3 | 33.2 |
| CUGCUGGAGCUUUGCUUUGGUCGUACAUGAGGAUCACCCAUGUAGGAUAUGGUAAAAUUUGCUUGCUAGAAGGAUAGAGUGGUC [salish99_ExNG3_r04_612] (Eterna round: R96, puzzle: Exclusion NG 3) | – | – | – | 88.1 | 34.3 | 42.4 |
| AGAUGUUAAGAGGAUAUCAGCCGAAACCGGCAGUGAGAAGGCUUGACAUGAGGAUCACCCAUGUUUUGCGGUAA [Intebiabe] (Eterna round: R97, puzzle: Exclusion 6) | – | – | – | 300 | – | 35.6 |
| GAAUGCAAGUAAAGAUCUUACAUGAGGAUCACCCAUGUGCUCGUCUUAUAAAGUACUAUCACGAAAGUGAUAGUACA [Mat - Sensor v3 - turn-off var 1 - Eli Mod - D90] (puzzle: Sensor v3, turn-off variant 1) | 16.3 | 84.1 | 17.4 | – | – | – |
| CUAUAAGGUGUUAGGAUAUCGGCUCGAGGUACUAGCGAGAAGGAACAUGAGGAUCACCCAUGUGGUCAUGAUUU [Eternabot (L2) Solution 60] (Eterna round: R97, puzzle: Brourd's mod of Exclusion 4) | – | – | – | 152 | – | 139 |
| ACAUGAGGAUCACCCAUGUCCGGCUGGUCCGUCUCGGCUGUCGAGGAUAUAGCUCGGUAUCCGCGCUAGAAGGCGGGAGCCGGA [Aenatbe mod 84] (Eterna round: R96, puzzle: Exclusion NG 3) | – | – | – | 45.3 | 29.1 | 44.4 |
| UUUUUAUAUGAAGGAUAUACUUAACAUGAGGAUCACCCAUGUGGUGUUGUGAGUGAGUGAGUUUAGUAGAAGGUCAAUUAUUGU [JMF's solution 16] (Eterna round: R96, puzzle: Exclusion NG 2) | – | – | – | 2260 | 155 | 394 |
| GAUUAUGCGAGCUUUAGGGACAUGAGGAUCACCCAUGUUCGUCUUAUUGGUCUAAAUGCACUAACAUACCUAAAUCU [JMF 23] (puzzle: Sensor v3, turn-off variant 1) | 17.7 | 22.4 | 19.3 | – | – | – |
| UAUAUGUCAGGAUAUCGAUUAGUACGGGAUUCGGUACUGGUUGAGAAGGGACAUGAGGAUCACCCAUGUUUUUC [EX4 #69] (Eterna round: R97, puzzle: Exclusion 4) | – | – | – | 284 | – | 36.5 |
| GCACGGAGUGUAGGAUAUCUGUGCGAUUAGCUCAGAGAAGGACACAUGAGGAUCACCCAUGUGUAACUCAAUACUAAUCCGUGC [Eli exng1 - 077] (Eterna round: R96, puzzle: Exclusion NG 1) | – | – | – | 10.6 | 7.89 | 10.7 |
| GCAAGAAUAGGAUAUACACCAUGCCAGCUUCUAUACAACGCACAUGAGGAUCACCCAUGUAGAAGGGUUCUCUC [Exclusion-2-#11] (Eterna round: R97, puzzle: Exclusion 2) | – | – | – | 336 | – | 323 |
| UACAUGAGGAUCACCCAUGUUUUGUCGUGUAUGGUAUUUAUCUAGGAUAUCAUUUUAGUUAGUUAUGAGAAGGAGAAUAUUAAU [JMF's solution 88] (Eterna round: R96, puzzle: Exclusion NG 3) | – | – | – | – | 26.4 | – |
| GGUUGGCGAGGAUAUACAUGAGGAUCACCCAUGUGGUCCUGAGAUAGAAUAGCCCUUUGUAGAAGGCGCGGGUC [salish99_ex3_r4_044] (Eterna round: R97, puzzle: Exclusion 3) | – | – | – | 203 | – | 166 |
| UCUUCACAUGAGGAUCACCCAUGUCAGGAUAUGCUCCCGAGUCACCUUAUCAUGGGACGCAGAAGGGACAUUAU [EX1 B.3] (Eterna round: R97, puzzle: Exclusion 1) | – | – | – | 43 | – | 19.8 |
| CUUGUUUAUGUAGGAUAUGCCUGGCGUGCCUUUGCAGAAGGACAUGAGGAUCACCCAUGUAACAUGAGGCUCACCCUUGUCGCA [salish99_ExNG1_r04_115] (Eterna round: R96, puzzle: Exclusion NG 1) | – | – | – | 183 | 62 | 162 |
| AAAUAUCAUGUAGGAUAUGGUAGGCGAACCUUACCAGAAGGACAUGAGGAUCACCCAUGUGCUGAGUUGUCCGUAGACAGCUCU [Ex NG1 #4] (Eterna round: R96, puzzle: Exclusion NG 1) | – | – | – | 74.1 | 63.7 | 78.7 |
| GUAAGGCAUCUAGGAUAUAGUAUACGGCGAACAUGAGGAUCACCCAUGUGUCCGAAUGCGGCGAGCUAGAAGGAGAAAUUGCCC [Enuszarima] (Eterna round: R96, puzzle: Exclusion NG 2) | – | – | – | 51.4 | 25.4 | 33.4 |
| CGAGCUUUUUGCUCGUCUUACAUGAGGAUCACCCAUGUCAUACAGAUAGAUAUACGAAAAGUAUAUCUAUCUGUAUG [Mod of sellena's -59.4, -80.7 kcal, A 10%] (Eterna round: R97, puzzle: Sensor, turn-off variant 1) | – | – | – | 23.3 | – | 27.5 |
